The text below walks through data of publication PMC8434428.

The target of the test is Aca2 (anti-CRISPR associated protein 2) from Pectobacterium carotovorum bacteriophage ZF40 (Pectobacterium carotovorum bacteriophage ZF40). Description: SEC; final size exclusion run of untagged Aca2 on HiPrep 16/60 Sephacryl S-200 in buffer S [50 mM Tris-HCl (pH 7.9), 500 mM KCl, 10% glycerol]; oligomer judged from the elution volume. (In general: SEC sorts molecules by how far they enter the pores of the column.)

What is called stoichiometry N is a count of units in the complex or per binding partner. “Aca2 (anti-CRISPR associated protein 2) from Pectobacterium carotovorum bacteriophage ZF40 (natural protein)” displayed a stoichiometry N of 2.
